B1: Protein PTHB1 (Homo sapiens), Q3SYG4 (parent)
chain: MSLFKARDWWSTILGDKEEFDQGCLCLANVDNSGNGQDKIIVGSFMGYLRIFSPHPAKTGDGAQAEDLLLEVDLRDPVLQVEVGKFVSGTEMLHLAVLHSRKLCVYSVSGTLGNVEHGNQCQMKLMYEHNLQRTACNMTYGSFGGVKGRDLICIQSMDGMLMVFEQESYAFGRFLPGFLLPGPLAYSSRTDSFLTVSSCQQVESYKYQVLAFATDADKRQETEQQKLGSGKRLVVDWTLNIGEQALDICIVSFNQSASSVFVLGERNFFCLKDNGQIRFMKKLDWSPSCFLPYCSVSEGTINTLIGNHNNMLHIYQDVTLKWATQLPHIPVAVRVGCLHDLKGVIVTLSDDGHLQCSYLGTDPSLFQAPNVQSRELNYDELDVEMKELQKIIKDVNKSQGVWPMTEREDDLNVSVVVSPNFDSVSQATDVEVGTDLVPSVTVKVTLQNRVILQKAKLSVYVQPPLELTCDQFTFEFMTPDLTRTVSFSVYLKRSYTPSELEGNAVVSYSRPTDRNPDGIPRVIQCKFRLPLKLICLPGQPSKTASHKITIDTNKSPVSLLSLFPGFASQSDDDQVNVMGFHFLGGARITVLASKTSQRYRIQSEQFEDLWLITNELILRLQEYFEKQGVKDFACSFSGSIPLQEYFELIDHHFELRINGEKLEELLSERAVQFRAIQRRLLARFKDKTPAPLQHLDTLLDGTYKQVIALADAVEENQGNLFQSFTRLKSATHLVILLIALWQKLSADQVAILEAAFLPLQEDTQELGWEETVDAAISHLLKTCLSKSSKEQALNLNSQLNIPKDTSQLKKHITLLCDRLSKGGRLCLSTDAAAPQTMVMPGGCTTIPESDLEERSVEQDSTELFTNHRHLTAETPRPEVSPLQGVSE
partner: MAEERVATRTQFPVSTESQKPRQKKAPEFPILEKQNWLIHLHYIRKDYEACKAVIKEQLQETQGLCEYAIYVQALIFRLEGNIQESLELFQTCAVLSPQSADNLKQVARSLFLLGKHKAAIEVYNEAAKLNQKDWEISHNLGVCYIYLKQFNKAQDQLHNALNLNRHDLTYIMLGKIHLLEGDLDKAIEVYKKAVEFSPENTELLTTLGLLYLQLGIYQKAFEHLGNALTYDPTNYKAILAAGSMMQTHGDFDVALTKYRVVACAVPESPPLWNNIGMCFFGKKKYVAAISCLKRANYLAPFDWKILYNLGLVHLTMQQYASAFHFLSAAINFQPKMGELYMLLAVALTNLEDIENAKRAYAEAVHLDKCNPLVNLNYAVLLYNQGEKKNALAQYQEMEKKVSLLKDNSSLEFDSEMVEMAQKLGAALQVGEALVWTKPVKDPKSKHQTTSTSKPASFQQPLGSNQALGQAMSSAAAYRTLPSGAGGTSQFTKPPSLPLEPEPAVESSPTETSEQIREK

Variants of: B1
Conditions: with bbs4_human BBS4, Q96RK4

| Variant | effect of a mutation on the interaction |
| --- | --- |
| G659A | with no effect |
| G659D | disrupting interaction strength |
| G659E | with no effect |
| G659K | with no effect |
| L655E | with no effect |
| L655K | with no effect |
| L655A | with no effect |
| S667A | with no effect |
| S667E | with no effect |
| S667K | with no effect |
| K661E | with no effect |
| K661A | with no effect |
| E663A | with no effect |
| E663K | with no effect |
| L666K | with no effect |
| L666E | disrupting interaction strength |
| L666A | with no effect |
| E654K | disrupting interaction strength |
| L662K | with no effect |
| L662E | with no effect |
| L662A | with no effect |
| N658E | with no effect |
| N658K | with no effect |
| N658A | with no effect |
| V671E | with no effect |

| Variant | effect of a mutation on the interaction |
| --- | --- |
| V671I | disrupting interaction strength |
| V671K | with no effect |
| V671A | with no effect |
| A670E | with no effect |
| A670K | with no effect |
| L665E | with no effect |
| L665K | with no effect |
| L665R | disrupting interaction strength |
| L665F | disrupting interaction strength |
| L665A | with no effect |
| E660A | with no effect |
| E660K | with no effect |
| E664A | with no effect |
| E664K | with no effect |
| E668K | with no effect |
| E668A | with no effect |
| R656E | with no effect |
| R656A | with no effect |
| R656K | with no effect |
| I657A | with no effect |
| I657E | with no effect |
| I657K | with no effect |
| R669E | with no effect |
| R669K | with no effect |
| R669A | with no effect |

The remaining lines, values ahead:

| effect of a mutation on the interaction | Variant |
| --- | --- |
| with no effect | F673A |
| with no effect | F673E |
| with no effect | F673K |
| disrupting interaction strength | R674Q |
| with no effect | R674E |
| disrupting interaction strength | R674W |
| disrupting interaction strength | R674P |
| disrupting interaction strength | R674A |
| with no effect | R674K |
| with no effect | Q677A |
| with no effect | Q677E |
| with no effect | Q677K |
| disrupting interaction strength | Q677Y |
| disrupting interaction strength | R678G |
| with no effect | R678E |
| with no effect | R678A |
| disrupting interaction strength | R678H |
| disrupting interaction strength | R678K |

| effect of a mutation on the interaction | Variant |
| --- | --- |
| with no effect | L680A |
| with no effect | L680E |
| with no effect | A675E |
| disrupting interaction strength | A675H |
| with no effect | A675K |
| with no effect | I676K |
| with no effect | I676A |
| with no effect | I676E |
| disrupting interaction strength | V671R |
| with no effect | Q672K |
| with no effect | Q672A |
| with no effect | Q672E |
| disrupting interaction strength | R679L |
| disrupting interaction strength | R679W |
| with no effect | R679K |
| with no effect | R679E |
| with no effect | R679A |

— IntAct's records for PubMed 29039417
